According to paper PMC7321842:

Biological target: microtubules (MTs) of porcine brain Tubulin (porcine) (UniProt P02550)
Assay: turbidimetry

Chain of LEM2 N-terminal domain (LEM2NTD; AA:1–208) (Q8NC56 1-208): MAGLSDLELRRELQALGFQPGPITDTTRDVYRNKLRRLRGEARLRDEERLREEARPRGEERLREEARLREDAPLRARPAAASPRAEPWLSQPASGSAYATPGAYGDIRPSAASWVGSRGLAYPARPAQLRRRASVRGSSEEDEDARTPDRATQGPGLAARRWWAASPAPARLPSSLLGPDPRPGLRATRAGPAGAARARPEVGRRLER

Substance	K (apparent) (half-maximal concentration of MT bundling by light scattering)	half max (half-maximal concentration of MT bundling by light scattering)
LEM2 N-terminal domain (LEM2NTD; AA:1–208) (from UniProt Q8NC56 1-208) (domain or fragment)	1.3 µM	–
LEM2_(Mim2(Y122D, S134D, S138D, S139D, T147D, S166D, S174D, S175D)) (from UniProt Q8NC56 1-208) (domain or fragment)	–	8.44 µM
LEM2_(Mim1(S82D, S90D, S96D, Y98D, T100D, Y104D)) (from UniProt Q8NC56 1-208) (domain or fragment)	–	2.82 µM
